Reference: US20260286413A1, “HYALURONAN SYNTHESIS, SECRETION AND LENGTH CONTROL” (UNIVERSITY OF VIRGINIA, priority 2023, published 2026)
Blank lines part the entries; values can stand above or below the molecule they belong to.

Legend:
[1] = test system: Hyaluronic acid synthesis; conditions: cited from earlier work
HAS isoforms = conditions: cited from earlier work
X1HAS1 [2] = target: T1, X1HAS1 (Xenopus laevis, UniProt P13563); assay: Substrate turnover rate quantification (UDP release, enzyme-coupled assay); format: biochemical
T1 construct: dodeca-histidine (His12) (N); made in house; host or cells: Spodoptera frugiperda Sf9 cells (baculovirus)
T1 sequence (P13563 1-588): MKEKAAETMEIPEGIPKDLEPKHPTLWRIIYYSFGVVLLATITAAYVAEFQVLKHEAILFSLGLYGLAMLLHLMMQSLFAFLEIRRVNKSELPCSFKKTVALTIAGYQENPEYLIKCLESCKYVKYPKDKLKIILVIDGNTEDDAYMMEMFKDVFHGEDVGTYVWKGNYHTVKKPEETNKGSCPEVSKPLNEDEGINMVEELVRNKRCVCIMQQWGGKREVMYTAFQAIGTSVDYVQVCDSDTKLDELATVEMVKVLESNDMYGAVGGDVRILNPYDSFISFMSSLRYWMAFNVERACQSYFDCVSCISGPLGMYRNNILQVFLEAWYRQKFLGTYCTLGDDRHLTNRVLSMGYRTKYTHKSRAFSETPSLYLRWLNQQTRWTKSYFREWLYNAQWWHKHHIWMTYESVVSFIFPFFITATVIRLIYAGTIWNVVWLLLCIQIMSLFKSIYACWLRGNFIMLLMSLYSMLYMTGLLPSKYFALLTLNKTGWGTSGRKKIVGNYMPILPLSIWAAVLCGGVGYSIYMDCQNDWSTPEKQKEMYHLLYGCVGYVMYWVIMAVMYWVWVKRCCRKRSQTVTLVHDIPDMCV
Procedure: UDP release during HA synthesis was quantified using an enzyme-coupled assay as previously described (10, 13). Depletion of NADH was monitored at 340 nm every 60 s for 3 hours at 37° C. in a SpectraMax instrument. The raw data was processed in MS Excel and a linear phase of each reaction was determined. The rate of NADH depletion was converted to pmoles of UDP released using a UDP standardized plot (FIG. S1C) for Michaelis-Menten constant determination using GraphPad Prism. For substrate turnover rate quantification of X1HAS1 mutants, pmoles of released UDP were converted to the number of corresponding substrate turnovers per molecule of X1HAS1, per minute. Data is presented relative to wild type activity. All experiments were performed in four to eight replicates and error bars represent standard deviation from the means.
HAS transfers the UDP-activated glycosyl unit (the donor sugar) to the non-reducing end of the nascent HA polymer (the acceptor sugar). This reaction generates UDP and elongated HA as reaction products (FIG. 1A). Catalytic activity can be assessed by monitoring the release of UDP in an enzyme-coupled reaction, as previously described (10, 13), or quantifying HA, either radiometrically or by dye staining following electrophoresis.

X1HAS1 [3] = target: T1, X1HAS1; assay: Electrophoretic HA size determination (agarose gel, Stains-all) of in vitro synthesized HA; format: biochemical
Procedure: To assess the size of HA synthesized by X1HAS1, similar reaction conditions were applied to the ones described above. […] […] Controls were carried out by digesting the synthesized polymers with hyaluronidase. Synthesis reactions were mixed with SDS-PAGE loading dye and applied to a 1% agarose gel (Ultra-pure agarose, Invitrogen) casted in an Owl B2 system (ThermoFisher). […] After the run, the gel was equilibrated in 50% ethanol for 1.5 h and subjected to staining in 0.05% Stains-all (Sigma) in 50% ethanol overnight under light-protection. Post-staining background was reduced by soaking the gel in 20% ethanol for 3-7 days in the dark. The migration of the synthesized HA species was compared to HA standards from Streptococcus equi (Sigma), as well as enzymatically generated ladders: HA LoLadder and HA HiLadder (Hyalose).

Molecule: Cc1cc(=O)oc2cc(O)ccc12 [4-methylumbelliferone]
effect on hyaluronic acid synthesis [1]: inhibited

B1: HAS1: human HA synthase isoform 1 (protein, UniProt Q92839 1-578, looked up)
Hyaluronan synthase 1: MRQQDAPKPTPAACRCSGLARRVLTIAFALLILGLMTWAYAAGVPLASDRYGLLAFGLYGAFLSAHLVAQSLFAYLEHRRVAAAARGPLDAATARSVALTISAYQEDPAYLRQCLASARALLYPRARLRVLMVVDGNRAEDLYMVDMFREVFADEDPATYVWDGNYHQPWEPAAAGAVGAGAYREVEAEDPGRLAVEALVRTRRCVCVAQRWGGKREVMYTAFKALGDSVDYVQVCDSDTRLDPMALLELVRVLDEDPRVGAVGGDVRILNPLDSWVSFLSSLRYWVAFNVERACQSYFHCVSCISGPLGLYRNNLLQQFLEAWYNQKFLGTHCTFGDDRHLTNRMLSMGYATKYTSRSRCYSETPSSFLRWLSQQTRWSKSYFREWLYNALWWHRHHAWMTYEAVVSGLFPFFVAATVLRLFYAGRPWALLWVLLCVQGVALAKAAFAAWLRGCLRMVLLSLYAPLYMCGLLPAKFLALVTMNQSGWGTSGRRKLAANYVPLLPLALWALLLLGGLVRSVAHEARADWSGPSRAAEAYHLAAGAGAYVGYWVAMLTLYWVGVRRLCRRRTGGYRVQV
HA polymer size (HAS isoforms): several megadaltons

B2: HAS2: human HA synthase isoform 2 (protein, UniProt Q92819 1-552, looked up)
Hyaluronan synthase 2: MHCERFLCILRIIGTTLFGVSLLLGITAAYIVGYQFIQTDNYYFSFGLYGAFLASHLIIQSLFAFLEHRKMKKSLETPIKLNKTVALCIAAYQEDPDYLRKCLQSVKRLTYPGIKVVMVIDGNSEDDLYMMDIFSEVMGRDKSATYIWKNNFHEKGPGETDESHKESSQHVTQLVLSNKSICIMQKWGGKREVMYTAFRALGRSVDYVQVCDSDTMLDPASSVEMVKVLEEDPMVGGVGGDVQILNKYDSWISFLSSVRYWMAFNIERACQSYFGCVQCISGPLGMYRNSLLHEFVEDWYNQEFMGNQCSFGDDRHLTNRVLSLGYATKYTARSKCLTETPIEYLRWLNQQTRWSKSYFREWLYNAMWFHKHHLWMTYEAIITGFFPFFLIATVIQLFYRGKIWNILLFLLTVQLVGLIKSSFASCLRGNIVMVFMSLYSVLYMSSLLPAKMFAIATINKAGWGTSGRKTIVVNFIGLIPVSVWFTILLGGVIFTIYKESKRPFSESKQTVLIVGTLLYACYWVMLLTLYVVLINKCGRRKKGQQYDMVLDV
HA polymer size (HAS isoforms): several megadaltons

activity reduction when manganese is used instead of magnesium as cofactor (X1HAS1 [2]; Mn2+ instead of Mg2+): about 30%
HA production with Mn2+ (X1HAS1 [3]; agarose gel assay, Mn2+ versus Mg2+): reduces HA production slightly
catalytic rate suggested by electrophoretic analysis versus rate by UDP quantification (X1HAS1 [3]; based on ~1.6 MDa produced within 90 min): about 2 times
size of HA polymers with sustained high substrate (X1HAS1 [3]; both substrates (2.5 mM) supplemented at 2, 4, 6 h, UDP converted to UTP): > 1.6 MDa
size of HA polymers synthesized at completion (X1HAS1 [3]; in vitro synthesis, relative to HA marker): > 1.6 MDa
HA product length (X1HAS1 [3]; produced within 90 min): ~ 1.6 MDa
change of HA size with one substrate limiting (X1HAS1 [3]; substrate replenishing, UDP-GlcNAc at 0.1-1 mM): no increase in HA size
maximum HA extension (X1HAS1 [3]; without UDP removal, 2.5 mM of both substrates): ~1.6 MDa
B3: X1HAS1: Xenopus laevis HA synthase isoform 1, wild type (Uniprot P13563, SEQ ID NO: 9) (protein, UniProt P13563 1-588, looked up)
Hyaluronan synthase 1: T1 sequence (P13563 1-588)
overall catalytic rate (X1HAS1 [2]; UDP release): approximately 30 substrate turnovers per minute
